± gives the uncertainty stated by the source.

The data set in a line: abundance fitness (aPCA) (normalised: wild type 0, dead -1); higher = more abundant; growth selection in yeast, the domain comes from the species named. To be noted: Homo sapiens.
“BAG family molecular chaperone regulator 3 G15H, O95817” displayed an abundance fitness of 1.18 ± 0.16.

The substance “BAG family molecular chaperone regulator 3 G15I, O95817” registered an abundance fitness of 0.795 ± 0.18.

As for “BAG family molecular chaperone regulator 3 G15K, O95817”, the abundance fitness came out at 1.15 ± 0.12. With “BAG family molecular chaperone regulator 3 G15L, O95817”, the abundance fitness is 0.766 ± 0.074. “BAG family molecular chaperone regulator 3 G15M, O95817” yielded an abundance fitness of 0.142 ± 0.17. The substance “BAG family molecular chaperone regulator 3 G15N, O95817” gave an abundance fitness of 1.04 ± 0.089.

“BAG family molecular chaperone regulator 3 G15P, O95817” showed an abundance fitness of 0.603 ± 0.15. Regarding “BAG family molecular chaperone regulator 3 G15Q, O95817”, the abundance fitness worked out at 0.828 ± 0.094. As for “BAG family molecular chaperone regulator 3 G15R, O95817”, the figure is 0.737 ± 0.059; as for “BAG family molecular chaperone regulator 3 G15S, O95817”, 0.814 ± 0.067. In the case of “BAG family molecular chaperone regulator 3 G15T, O95817”, the abundance fitness was 0.856 ± 0.082. As for “BAG family molecular chaperone regulator 3 G15V, O95817”, the abundance fitness was found to be 0.89 ± 0.078. Substance “BAG family molecular chaperone regulator 3 G15W, O95817” displayed an abundance fitness of -0.481 ± 0.19.

For “BAG family molecular chaperone regulator 3 G15Y, O95817”, the abundance fitness worked out at 0.874 ± 0.075. Substance “BAG family molecular chaperone regulator 3 G17A, O95817” displayed an abundance fitness of 0.55 ± 0.09. Consider “BAG family molecular chaperone regulator 3 G17C, O95817”, for which the abundance fitness stood at 0.731 ± 0.11. Consider “BAG family molecular chaperone regulator 3 G17D, O95817”, for which the abundance fitness worked out at 0.825 ± 0.07. On to “BAG family molecular chaperone regulator 3 G17E, O95817”, for which the abundance fitness worked out at 0.915 ± 0.077. As for “BAG family molecular chaperone regulator 3 G17F, O95817”, the figure is -0.177 ± 0.23.

In the case of “BAG family molecular chaperone regulator 3 G17H, O95817”, the abundance fitness came to 1.03 ± 0.1. On to “BAG family molecular chaperone regulator 3 G17I, O95817”, for which the abundance fitness was found to be 0.73 ± 0.092. “BAG family molecular chaperone regulator 3 G17K, O95817”: the abundance fitness was 0.564 ± 0.093. With “BAG family molecular chaperone regulator 3 G17L, O95817”, the abundance fitness worked out at 0.282 ± 0.087. “BAG family molecular chaperone regulator 3 G17M, O95817” displayed an abundance fitness of 0.25 ± 0.21. “BAG family molecular chaperone regulator 3 G17N, O95817”: the abundance fitness worked out at 0.913 ± 0.13. In turn, “BAG family molecular chaperone regulator 3 G17P, O95817” registered an abundance fitness of 1.15 ± 0.12. The substance “BAG family molecular chaperone regulator 3 G17Q, O95817” gave an abundance fitness of 0.968 ± 0.098. Substance “BAG family molecular chaperone regulator 3 G17R, O95817” gave an abundance fitness of 0.791 ± 0.06.

Substance “BAG family molecular chaperone regulator 3 G17S, O95817” returned an abundance fitness of 0.82 ± 0.073.

In turn, “BAG family molecular chaperone regulator 3 G17T, O95817” returned an abundance fitness of 0.943 ± 0.083. As for “BAG family molecular chaperone regulator 3 G17W, O95817”, the figure is 0.329 ± 0.083; as for “BAG family molecular chaperone regulator 3 G17Y, O95817”, 0.213 ± 0.22. Take “BAG family molecular chaperone regulator 3 G25A, O95817”: the abundance fitness is -0.712 ± 0.17. Turning to “BAG family molecular chaperone regulator 3 G25C, O95817”, the abundance fitness was -0.74 ± 0.17. As for “BAG family molecular chaperone regulator 3 G25D, O95817”, the figure is -0.548 ± 0.23. “BAG family molecular chaperone regulator 3 G25H, O95817” returned an abundance fitness of -0.125 ± 0.065. Turning to “BAG family molecular chaperone regulator 3 G25K, O95817”, the abundance fitness is -0.492 ± 0.23. As for “BAG family molecular chaperone regulator 3 G25L, O95817”, the abundance fitness was -0.784 ± 0.19. Substance “BAG family molecular chaperone regulator 3 G25M, O95817” displayed an abundance fitness of -0.652 ± 0.075.

For “BAG family molecular chaperone regulator 3 G25N, O95817”, the abundance fitness was found to be 0.081 ± 0.21.

For “BAG family molecular chaperone regulator 3 G25Q, O95817”, the abundance fitness is -1.03 ± 0.27.

Substance “BAG family molecular chaperone regulator 3 G25R, O95817” showed an abundance fitness of -0.432 ± 0.14.

“BAG family molecular chaperone regulator 3 G25S, O95817” had an abundance fitness of -0.726 ± 0.19.

With “BAG family molecular chaperone regulator 3 G25T, O95817”, the abundance fitness is -0.667 ± 0.22.

“BAG family molecular chaperone regulator 3 G25V, O95817” returned an abundance fitness of -1.23 ± 0.33. “BAG family molecular chaperone regulator 3 G25W, O95817”: the abundance fitness was -0.875 ± 0.34. Turning to “BAG family molecular chaperone regulator 3 G35A, O95817”, the abundance fitness amounted to 0.335 ± 0.063. Substance “BAG family molecular chaperone regulator 3 G35C, O95817” yielded an abundance fitness of 0.146 ± 0.17. As for “BAG family molecular chaperone regulator 3 G35D, O95817”, the abundance fitness is 0.202 ± 0.13. Take “BAG family molecular chaperone regulator 3 G35F, O95817”: the abundance fitness is -0.552 ± 0.11. As to “BAG family molecular chaperone regulator 3 G35H, O95817”, the abundance fitness is 0.552 ± 0.28.

In turn, “BAG family molecular chaperone regulator 3 G35K, O95817” returned an abundance fitness of 0.766 ± 0.078. The substance “BAG family molecular chaperone regulator 3 G35L, O95817” yielded an abundance fitness of -0.184 ± 0.14. Turning to “BAG family molecular chaperone regulator 3 G35M, O95817”, the abundance fitness is -0.158 ± 0.16. “BAG family molecular chaperone regulator 3 G35N, O95817”: the abundance fitness is 1.26 ± 0.22. Substance “BAG family molecular chaperone regulator 3 G35P, O95817” displayed an abundance fitness of -0.237 ± 0.21.

Take “BAG family molecular chaperone regulator 3 G35Q, O95817”: the abundance fitness is 0.41 ± 0.11. In the case of “BAG family molecular chaperone regulator 3 G35R, O95817” it was 0.366 ± 0.078. “BAG family molecular chaperone regulator 3 G35S, O95817” displayed an abundance fitness of 0.442 ± 0.064.

Substance “BAG family molecular chaperone regulator 3 G35T, O95817” came in with an abundance fitness of -0.006 ± 0.11. “BAG family molecular chaperone regulator 3 G35V, O95817”: the abundance fitness is -0.589 ± 0.16.

The substance “BAG family molecular chaperone regulator 3 G35W, O95817” came in with an abundance fitness of -0.726 ± 0.19. Substance “BAG family molecular chaperone regulator 3 G35Y, O95817” had an abundance fitness of -0.304 ± 0.24. With “BAG family molecular chaperone regulator 3 G58A, O95817”, the abundance fitness was -0.45 ± 0.15.

“BAG family molecular chaperone regulator 3 G58C, O95817” returned an abundance fitness of -0.17 ± 0.25. As for “BAG family molecular chaperone regulator 3 G58D, O95817”, the abundance fitness was 0.238 ± 0.18. Take “BAG family molecular chaperone regulator 3 G58E, O95817”: the abundance fitness is -0.045 ± 0.18.

As for “BAG family molecular chaperone regulator 3 G58F, O95817”, the abundance fitness is -0.382 ± 0.37.

Substance “BAG family molecular chaperone regulator 3 G58H, O95817” registered an abundance fitness of -0.263 ± 0.1. As for “BAG family molecular chaperone regulator 3 G58I, O95817”, the figure is 0.138 ± 0.28. In the case of “BAG family molecular chaperone regulator 3 G58L, O95817”, the abundance fitness is -0.211 ± 0.2. As for “BAG family molecular chaperone regulator 3 G58M, O95817”, the figure is 0.512 ± 0.17; as for “BAG family molecular chaperone regulator 3 G58N, O95817”, 0.51 ± 0.35. Substance “BAG family molecular chaperone regulator 3 G58P, O95817” had an abundance fitness of -0.032 ± 0.29. The substance “BAG family molecular chaperone regulator 3 G58Q, O95817” showed an abundance fitness of 0.85 ± 0.19. As for “BAG family molecular chaperone regulator 3 G58R, O95817”, the figure is -0.214 ± 0.08. In the case of “BAG family molecular chaperone regulator 3 G58S, O95817” it was -0.193 ± 0.11; in that of “BAG family molecular chaperone regulator 3 G58V, O95817”, -0.129 ± 0.064. The substance “BAG family molecular chaperone regulator 3 G58W, O95817” showed an abundance fitness of -0.682 ± 0.29. On to “BAG family molecular chaperone regulator 3 H42A, O95817”, for which the abundance fitness was -0.857 ± 0.15. As for “BAG family molecular chaperone regulator 3 H42C, O95817”, the abundance fitness was -0.457 ± 0.33.

Source of the values: the Human Domainome abundance scans (Beltran et al. 2025).
